# Laboratory results reported in publication PMC8600091.
# Legend:
# [1] = molecular target: MBD2 MBD R166K/R188K (Homo sapiens, UniProt Q9UBB5 143-220, R166K;R188K); experiment: ITC
# [2] = molecular target: MBD2 MBD R188K (Homo sapiens, UniProt Q9UBB5 143-220, R188K); experiment: ITC
# Sequence of MBD2 MBD R188K (Q9UBB5 143-220 R188K): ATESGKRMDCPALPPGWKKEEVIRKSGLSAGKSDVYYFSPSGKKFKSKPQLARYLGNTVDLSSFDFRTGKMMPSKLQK
# Sequence of MBD2 MBD R166K/R188K (Q9UBB5 143-220 R166K/R188K): as the sequence (Q9UBB5 143-220 R188K) above, with R24K counted along it
binder,measurement,setting,value
"mCG dsDNA 12mer (dsDNA, 5-methyl-C at position 6 of both strands) DNA 1: GCCAACGTTGGC DNA 2: GCCAACGTTGGC",binding result,[1],no binding
same,Kd,[2],7.5 ± 0.4 µM
